The record followed here is paper PMC10275983.

As usually defined, the IC50 is the concentration needed to halve the response being measured. High values mean weaker potency in that assay, low ones greater potency in that assay.

Several values for one entry are separate records, joined by “and”; a condition that tells them apart may be missing. Equal values may be shown once.

This experiment addresses S1 (Novus Biologicals NBP2-90985) (SARS-CoV-2), P0DTC2. The experiment can be described thus: AlphaScreen or HTRF. On the technique in general: In Alpha technology, singlet oxygen from a donor bead excites a nearby acceptor bead.
Turning to ACEDNDWVYCSTCA (modifications not checked) [BCY15231 (E3)], the IC50 was 0.31 µM and 0.4 µM.

On to ACEYVGPMCYRLYCA (modifications not checked) [BCY15354 (E1)], for which the IC50 was 0.36 µM and 1.6 µM and 0.55 µM.

As for ACMNPFFYDCETVCA (modifications not checked) [BCY16207 (E9)], the IC50 turned out to be 1.1 µM.
